Experimental data reported in US7264809B1, “Methods of inhibiting platelet activation and recruitment” (Immunex Corporation, priority 1998, dated 2007).

Columns and labels:
[1] = parameters: species or system Balb/c mice; details: mouse, in vivo, iv
Protocol: At various times after injection (5, 10, 30 min, 1, 2, 4, 8, 24 h), pairs of mice were bled by cardiac puncture and euthanized. Serum was prepared from each blood sample and frozen until assay. […] The data were fit using […], Monterey, Calif.). The best fit was derived using double exponential decay. Where indicated, specificity of enzyme activity was determined by incubating serum samples with anti-CD39 mAb-coated beads to remove CD39 prior to testing for ATPase activity.

[2] = system: injured coronary artery segments; assay: Percutaneous transluminal coronary angioplasty (balloon injury) study
Source text: Porcine platelets and fibrinogen were labeled with ^111Indium and ^125Iodine respectively for infusion into pigs. […] Oral ASA was given to all pigs for at least three day prior to the coronary angioplasty procedure, and heparin (100 U/kg) was given at the time of the angioplasty. One to three days prior to the angioplasty an external jugular line was inserted to administer the labeled platelets and fibrin, CD39 or saline, and to facilitate blood draws. Labeled platelets and fibrinogen were given approximately 18 hours prior to balloon injury. Coronary arteries were injured using an oversize balloon. A coronary guide catheter was first advanced into the ascending aorta. An oversized balloon was then advanced into a coronary vessel and inflated at 6 to 8 atmospheres for a total of thirty seconds. The balloon was then deflated and withdrawn. The average ratio of balloon size to vessel size was 1.32 for the placebo group and 1.29 for the CD39 group.
Platelet aggregation and bleeding time were measured 30 minutes after administration. […] Moreover, no bleeding was noted during PTCA or after sheath removal and there was no significant difference in hematocrit or platelet counts between the groups.
After the radioactivity decayed, toluidine-blue stained injured coronary artery segments were examined histologically, in order to further characterize the extent of thrombus formation. A blinded observer qualitatively evaluated the degree of histologic injury in the coronary segments by assessing, on a scale of 1-4 with 4 being the most severe injury, the severity of medial and internal elastic lamina tear, medial separation, and hemorrhage. A composite injury score was obtained by totaling, the three individual scores. The medial injury scores for the placebo and CD39 groups were 2.5 and 2.2 respectively; medial separation scores for the placebo and CD39 groups were 2.0 and 1.6 respectively; the degree of hemorrhage for the placebo and CD39 groups were 2.3 and 2.5 respectively. The composite injury scores for the placebo and CD39 groups were […] and 6.2 respectively. These in vivo results correlate well with results, reported herein, obtained in vitro and ex vivo.

[3] = Murine model of stroke (middle cerebral artery occlusion); assay type: in vivo, mice
Protocol: Anesthetized mice were maintained at 37±2° C. during and for 90 min following surgery. A midline neck incision was made and the right carotid artery exposed. Middle cerebral artery occlusion was accomplished by advancing a 13-mm heat-blunt tipped 6-0 nylon suture via an arteriotomy in the external carotid stump. The external carotid artery was cauterized to secure hemostasis, and arterial flow reestablished. […] Surgical staples were used for wound closure. […]

Bleeding time in mice = assay type: in vivo; details: aspirin 5 mg/kg; increasing doses of solCD39 (4, 8, 20 mg/kg)
Source text: (*p<0.05, ^‡p<0.01, ^†p<0.001).
Hematological profiles, including erythrocyte parameters, platelet counts, leukocyte counts and differentials, and coagulation screening, were normal. […] Under those conditions, the defect was abolished and normal blood fluidity was restored by administration of soluble CD39.

[4] = parameters: species or system pigs; details: pig, in vivo
Protocol: Aspirin was administered orally on a daily basis. Placebo controls consisted of aspirin. Saline controls and solCD39 were administered as a single bolus. Time points were measured following this administration. Blood samples were obtained via an external jugular vein catheter. […] ADP-induced platelet aggregation was measured at specific time intervals following administration. The concentration of CD39 in serum as a function of time was measured using an ELISA assay. Distribution and clearance half-lives were determined using a biphasic curve fit.

platelets [5] = assay: Ex vivo additive inhibition of platelet aggregation in patient platelet rich plasma; assay type: cell-based, human
platelets [6] = assay: Platelet aggregation in human platelet-rich plasma; assay type: cell-based
Protocol: After obtaining informed consent from volunteers, blood was collected via plastic tubing using acid citrate-dextrose (38 mM citric acid; 75 mM sodium citrate; 135 mM glucose) as anticoagulant. Where indicated, volunteers had ingested 650 mg acetylsalicylic acid (ASA) 18 h prior to blood donation. […] The stock suspension of PRP was maintained at room temperature under 5% CO2-air. […] Total volumes were adjusted to 300 μl with TSG buffer (Marcus et al., J. Clin. Invest. 88:1690, 1991; Marcus et al., J. Clin. Invest. 99:1351, 1997). […] A mock-treated sample was also prepared in which the FSBA solution was replaced with water. After incubating at 37° for 90 min., the samples were centrifuged in a Centricon-10 filter unit (Amicon Corp.) for 1 hour at 5,500 rpm and buffer exchanged into PBS to remove unreacted material.

[7] = 670 μg/kg i.v. plus heparin and ASA, 24 hours after balloon injury
[8] = administered three hours following stroke induction
[9] = prior to, or up to 3 h following, stroke

B1: solCD39: recombinant soluble human CD39, untagged: 12 mature huIL2 residues, three amino acid linker, sol CD39 (SEQ ID NO:7) (protein)
chain: MALWIDRMQLLSCIALSLALVTNSAPTSSSTKKTQLTSSTQNKALPENVKYGIVLDAGSSHTSLYIYKWPAEKENDTGVVHQVEECRVKGPGISKFVQKVNEIGIYLTDCMERAREVIPRSQHQETPVYLGATAGMRLLRMESEELADRVLDVVERSLSNYPFDFQGARIITGQEEGAYGWITINYLLGKFSQKTRWFSIVPYETNNQETFGALDLGGASTQVTFVPQNQTIESPDNALQFRLYGKDYNVYTHSFLCYGKDQALWQKLAKDIQVASNEILRDPCFHPGYKKVVNVSDLYKTPCTKRFEMTLPFQQFEIQGIGNYQQCHQSILELFNTSYCPYSQCAFNGIFLPPLQGDFGAFSAFYFVMKFLNLTSEKVSQEKVTEMMKKFCAQPWEEIKTSYAGVKEKYLSEYCFSGTYILSLLLQGYHFTADSWEHIHFIGKIQGSDAGWTLGYMLNLTNMIPAEQPLSTPLSHST
- apyrase activity cleared from the circulation during distribution phase [1]: 55-65%
- t1/2α (distribution phase), ADPase assay ([1]; 50 ug): 43 min
- t1/2α (distribution phase), ATPase assay ([1]; 50 ug): 59 min
- Fibrin Deposition Ratio [2, 7]: 0.62 ± 0.10
- Platelet Deposition Ratio [2, 7]: 1.25 ± 0.19
- Bleeding Time ([2]; 30 minutes after administration): 7.00 ± 0.81
- medial injury score ([2]; histology, scale of 1-4): 2.2
- medial separation score ([2]; histology, scale of 1-4): 1.6
- degree of hemorrhage ([2]; pig, in vivo): 2.5
- tolerability ([2]; pigs, PTCA): well tolerated
- composite injury score ([2]; total of three scores): 6.2
- fibrin accumulation in the ipsilateral hemisphere ([3]; 8 mg/kg, Western blot): decreased
- postischemic cerebral perfusion / blood flow ([3]; 24 hours after stroke induction): improved
- infarction volume [3, 8]: reduced
- postischemic blood flow [3, 8]: restored
- intracerebral hemorrhage ([3]; following stroke, spectrophotometric): no significant increase
- cerebral infarct volume ([3]; preoperative administration, aspirin 5 mg/kg): dose-dependent diminution
- platelet accumulation in the ipsilateral cerebral hemisphere ([3]; pretreated with 8 mg/kg i.v.): inhibited
- mortality [3, 9]: reduced
- neurological deficit [3, 9]: reduced
- infarct volume in CD39−/− mice ([3]; reconstituted CD39−/− mice): markedly diminished
- bleeding times (Bleeding time in mice): markedly increased
- elimination half-life of biological activity (ADPase activity) [4]: 5-7 days
- t1/2α (distribution phase) [4]: 29 min
- Platelet aggregation (platelets [5]; SolCD39 10 μg/ml, ADP, Abciximab group): 0 ± 0 arbitrary units
- Platelet aggregation (platelets [5]; SolCD39 10 μg/ml, ADP, Aspirin group): 4 ± 2 arbitrary units
- Platelet aggregation (platelets [5]; SolCD39 10 μg/ml, ADP, Clopidogrel group): 5 ± 2 arbitrary units
- Platelet aggregation (platelets [5]; SolCD39 10 μg/ml, ADP, Placebo group): 0 ± 0 arbitrary units
- Platelet aggregation (platelets [5]; SolCD39 10 μg/ml, ADP, Ticlopidine group): 10 ± 2 arbitrary units
- Platelet aggregation (platelets [5]; SolCD39 10 μg/ml, Collagen, Abciximab group): 0 ± 0 arbitrary units
- Platelet aggregation (platelets [5]; SolCD39 10 μg/ml, Collagen, Aspirin group): 21 ± 4 arbitrary units
- Platelet aggregation (platelets [5]; SolCD39 10 μg/ml, Collagen, Clopidogrel group): 31 ± 9 arbitrary units
- Platelet aggregation (platelets [5]; SolCD39 10 μg/ml, Collagen, Placebo group): 75 ± 2 arbitrary units
- Platelet aggregation (platelets [5]; SolCD39 10 μg/ml, Collagen, Ticlopidine group): 48 ± 18 arbitrary units
- Platelet aggregation (platelets [5]; SolCD39 10 μg/ml, TRAP, Abciximab group): 22 ± 10 arbitrary units
- Platelet aggregation (platelets [5]; SolCD39 10 μg/ml, TRAP, Aspirin group): 38 ± 7 arbitrary units
- Platelet aggregation (platelets [5]; SolCD39 10 μg/ml, TRAP, Clopidogrel group): 35 ± 1 arbitrary units
- Platelet aggregation (platelets [5]; SolCD39 10 μg/ml, TRAP, Placebo group): 70 ± 3 arbitrary units
- Platelet aggregation (platelets [5]; SolCD39 10 μg/ml, TRAP, Ticlopidine group): 19 ± 6 arbitrary units
- Platelet aggregation (platelets [5]; SolCD39 100 μg/ml, ADP, Abciximab group): 0 ± 0 arbitrary units
- Platelet aggregation (platelets [5]; SolCD39 100 μg/ml, ADP, Aspirin group): 1 ± 0 arbitrary units
- Platelet aggregation (platelets [5]; SolCD39 100 μg/ml, ADP, Clopidogrel group): 0 ± 0 arbitrary units
- Platelet aggregation (platelets [5]; SolCD39 100 μg/ml, ADP, Placebo group): 0 ± 0 arbitrary units
- Platelet aggregation (platelets [5]; SolCD39 100 μg/ml, ADP, Ticlopidine group): 2 ± 2 arbitrary units
- Platelet aggregation (platelets [5]; SolCD39 100 μg/ml, Collagen, Abciximab group): 0 ± 0 arbitrary units
- Platelet aggregation (platelets [5]; SolCD39 100 μg/ml, Collagen, Aspirin group): 16 ± 4 arbitrary units
- Platelet aggregation (platelets [5]; SolCD39 100 μg/ml, Collagen, Clopidogrel group): 21 ± 6 arbitrary units
- Platelet aggregation (platelets [5]; SolCD39 100 μg/ml, Collagen, Placebo group): 57 ± 5 arbitrary units
- Platelet aggregation (platelets [5]; SolCD39 100 μg/ml, Collagen, Ticlopidine group): 37 ± 15 arbitrary units
- Platelet aggregation (platelets [5]; SolCD39 100 μg/ml, TRAP, Abciximab group): 22 ± 9 arbitrary units
- Platelet aggregation (platelets [5]; SolCD39 100 μg/ml, TRAP, Aspirin group): 26 ± 5 arbitrary units
- Platelet aggregation (platelets [5]; SolCD39 100 μg/ml, TRAP, Clopidogrel group): 23 ± 3 arbitrary units
- Platelet aggregation (platelets [5]; SolCD39 100 μg/ml, TRAP, Placebo group): 65 ± 4 arbitrary units
- Platelet aggregation (platelets [5]; SolCD39 100 μg/ml, TRAP, Ticlopidine group): 18 ± 7 arbitrary units
- platelet aggregation induced by 10 μM ADP (platelets [6]; 3.3 μg/ml solCD39, PRP from aspirin-ingesting donor): abruptly terminated
- induction of platelet activation by ADP or collagen (platelets [6]; ASA-treated PRP, 10 μM ADP (4.4 μg/ml) or collagen (22 μg/ml)): significantly inhibited
- effect on collagen-induced aggregation with increasing quantity (platelets [6]; PRP from aspirin-ingesting donor): dose dependent
- platelet responsiveness to 5 μM ADP (platelets [6]; PRP with or without 10 μM indomethacin, CM containing solCD39 from COS-1 and CHO cells): completely abrogating
- platelet aggregation response to collagen (platelets [6]; collagen 1 μg/ml, PRP): markedly reduced
